Measurements published in patent US7951549B2, “Methods for the identification of agents that inhibit mesenchymal-like tumor cells or their formation” (OSI Pharmaceuticals, Inc., priority 2008, dated 2011).

How the values were obtained:
H358 cells [1] = experiment: Induction of EMT in H358 cells by growth factors and cytokines (immunoblot of EMT biomarkers); type: cell-based, human; conditions: seven day treatment of H358
Procedure: The human line H358 was cultured in the appropriate ATCC recommended supplemented media. Growth factor and cytokine induced EMT was monitored over a 7-14 day period. […]
Cell lines were treated as indicated in the text and figure legends. […] Protein concentration was determined by micro-BCA assay (Pierce, #23227). […]

H358 cells [2] = experiment: Immunofluorescence and confocal imaging of E-cadherin and vimentin in ligand-treated H358 cells; type: cell-based, human; conditions: cells treated for 7 days
Procedure: Cells were plated on coverslips on experimental day 0, stimulated with ligand on day 1 and refreshed with medium and ligand on day 3-4. On day 7, cells were fixed at room temperature for 10 minutes in 4% paraformaldehyde (EMS #15701)/PBS (Gibco #14190). Cells were blocked in 3% BSA/PBS and incubated with primary antibody (E-cadherin, Santa Cruz #sc21791 and Vimentin, Chemicon #AB5733) diluted in blocking buffer for two hours at room temperature. Cells were washed and incubated in secondary antibody (Invitrogen #A11029 and Chemicon #AP194R) followed by nuclear counterstain TO-PRO3 (Invitrogen #T3605). Coverslips were mounted on slides with Pro-Long Gold anti-fade reagent (Invitrogen P36934). Images were captured on a Leica DMRXE microcope with SP2 scanner using Leica Confocal Software.

B1: OSM: oncostatin M (R&D Systems #295-OM) (protein, UniProt P13725 26-221, looked up)
Oncostatin-M: AAIGSCSKEYRVLLGQLQKQTDLMQDTSRLLDPYIRIQGLDVPKLREHCRERPGAFPSEETLRGLGRRGFLQTLNATLGCVLHRLADLEQRLPKAQDLERSGLNIEDLEKLQMARPNILGLRNNIYCMAQLLDNSDTAEPTKAGRGASQPPTPTPASDAFQRKLEGCRFLHGYHRFMHSVGRVFSKWGESPNRSRR
- E-cadherin repression or vimentin induction as single agents (H358 cells [1]): neither HGF or OSM as single agents produced significant
- extent of EMT at the single cell level (E-cadherin and vimentin expression and localization) (H358 cells [2]): partial EMT
